Data as given in patent US20050158818A1, “Cephalosporin C acylases” (ANTIBIOTICOS S.p.A., priority 2004, published 2005).

Assays:
[1] = Acylase kinetics, hydrolysis of glutaryl 7-ACA (7-ACA determined at 415 nm with p-dimethylaminobenzaldehyde); assay type: biochemical; conditions: glutaryl-7ACA as the substrate; after HiTrap Chelating purification
Description: Kinetics parameters of the mutants and HisVAC acylase were determined measuring the hydrolysis of cephalosporin C or glutaryl 7-ACA in 0.1 M phosphate buffer solution, pH 8.0 at 37° C. (then converted in units at 25° C.). The amount of 7-ACA is determined spectrophotometrically, using a standard curve, measuring the yellow intensity at 415 nm (Schiff base), resulting upon reaction with p-dimethylaminobenzaldehyde, using modified Bulasingham method (Biochem. Biophys. Acta 276, 250, 1972).
One acylase unit is the amount of enzyme (in solution or immobilized) which, under the assay conditions, produces one micromole of 7-ACA/minute.

[2] = Dependence of enzymatic activity on pH and temperature; assay type: biochemical; conditions: after 30 minutes reaction
Description: (§1) Purified HisVAC is stable after 120 min incubation at pH ranging from 5 to 9. Enzymatic activity increases as a function of the pH of the reaction solution, in the range 5-10, reaching the highest value at 40° C. after 30 minutes reaction.

[3] = Stability of the enzyme (pH, temperature); assay type: physicochemical; conditions: 120 min incubation at pH ranging from 5 to 9
Description: as §1

[4] = Conversion of cephalosporin C to 7-ACA with acylase in solution (HPLC); assay type: biochemical; conditions: 2.27 g/l cephalosporin C, 167.2 total units
Description: 0.053 g cephalosporin C, dihydrate sodium salt (86% purity) is dissolved in 20 ml of 100 mM potassium phosphate buffer, pH 8 (2.27 g/l, assuming a 100% purity) and added to 6.4 ml purified acylase (167.2 total units). The mixture is incubated at 20° C., under stirring, keeping the pH at 8 by addition of diluted sodium hydroxide.

B1: wild-type: Designed cephalosporin C acylase based on Pseudomonas N176 acylase, Phe at 270, C-terminal LEHHHHHH tag (Seq. ID #1) (protein)
chain: MTMAANTDRAVLQAALPPLSGSLPIPGLSASVRVRRDAWGIPHIKASGEADAYRALGFVHSQDRLFQMELTRRKALGRAAEWLGAEAAEADILVRRLGMEKVCRRDFEALGVEAKDMLRAYVAGVNAFLASGAPLPVEYGLLGAEPEPWEPWHSIAVMRRLGLLMGSVWFKLWRMLALPVVGAANALKLRYDDGGRDLLCIPPGAEADRLEADLATLRPAVDALLKAMGGDASDAAGGGSNNWAVAPGRTATGRPILAGDPHRVFEIPGFYAQHHLACDRFDMIGLTVPGVPGFPHFAHNGKVAYCVTHAFMDIHDLYLEQFAGEGRTARFGNDFEPVAWSRDRIAVRGGADREFDIVETRHGPVIAGDPRDGAALTLRSVQFAETDLSFDCLTRMPGASTVAQLYDATRGWGLIDHNLVAGDVAGSIGHLVRARVPSRPRENGWLPVPGWSGEHEWRGWIPHEAMPRVIDPPGGIIVTANNRVVADDHPDYLCTDCHPPYRAERIMKRLVANPAFAVDDAAAIHADTLSPHVGLLRRRLEALGARDDSAAEGLRQMLVAWDGRMDAASEVASAYNAFRRALTRLVTDRSGLEQAISHPFAAVAPGVSPQGQVWWAVPTLLRDDDAGMLKGWSWDQALSEALSVASQNLTGRSWGEEHRPRFTHPLATQFPAWAGLLNPASRPIGGDGDTVLANGLVPSAGPQATYGALSRYVFDVGNWDNSRWVVFHGASGHPASAHYADQNAPWSDCAMVPMLYSWDRIAAEAVTSQELVPALEHHHHHH
modifications: C-terminal LEHHHHHH tag; Pseudomonas
Specific activity of purified enzyme [1]: 6.5 U/mg proteins
Temperature of highest enzymatic activity [2]: 40 °C
Stability to pH [3]: stable
Maximum conversion to 7-ACA ([4]; 100 mM potassium phosphate pH 8, 20° C., HPLC): 92.8%
Time to maximum conversion to 7-ACA ([4]; pH 8, 20° C.): 150 min
